Laboratory results reported in IntAct's records for PubMed 27615052.

B1: E3 ubiquitin-protein ligase LRSAM1 (Homo sapiens), Q6UWE0 (parent)
chain: MPLFFRKRKPSEEARKRLEYQMCLAKEAGADDILDISKCELSEIPFGAFATCKVLQKKVLIVHTNHLTSLLPKSCSLLSLATIKVLDLHDNQLTALPDDLGQLTALQVLNVERNQLMQLPRSIGNLTQLQTLNVKDNKLKELPDTVGELRSLRTLNISGNEIQRLPQMLAHVRTLEMLSLDASAMVYPPREVCGAGTAAILQFLCKESGLEYYPPSQYLLPILEQDGIENSRDSPDGPTDRFSREELEWQNRFSDYEKRKEQKMLEKLEFERRLELGQREHTQLLQQSSSQKDEILQTVKEEQSRLEQGLSEHQRHLNAERQRLQEQLKQTEQNISSRIQKLLQDNQRQKKSSEILKSLENERIRMEQLMSITQEETESLRRRDVASAMQQMLTESCKNRLIQMAYESQRQNLVQQACSSMAEMDERFQQILSWQQMDQNKAISQILQESAMQKAAFEALQVKKDLMHRQIRSQIKLIETELLQLTQLELKRKSLDTESLQEMISEQRWALSSLLQQLLKEKQQREEELREILTELEAKSETRQENYWLIQYQRLLNQKPLSLKLQEEGMERQLVALLEELSAEHYLPIFAHHRLSLDLLSQMSPGDLAKVGVSEAGLQHEILRRVQELLDAARIQPELKPPMGEVVTPTAPQEPPESVRPSAPPAELEVQASECVVCLEREAQMIFLNCGHVCCCQQCCQPLRTCPLCRQDIAQRLRIYHSS

Variants of: B1
Conditions: with G3BP1, Q13283
Chain of G3BP1, Q13283 (Q13283 whole entry, looked up): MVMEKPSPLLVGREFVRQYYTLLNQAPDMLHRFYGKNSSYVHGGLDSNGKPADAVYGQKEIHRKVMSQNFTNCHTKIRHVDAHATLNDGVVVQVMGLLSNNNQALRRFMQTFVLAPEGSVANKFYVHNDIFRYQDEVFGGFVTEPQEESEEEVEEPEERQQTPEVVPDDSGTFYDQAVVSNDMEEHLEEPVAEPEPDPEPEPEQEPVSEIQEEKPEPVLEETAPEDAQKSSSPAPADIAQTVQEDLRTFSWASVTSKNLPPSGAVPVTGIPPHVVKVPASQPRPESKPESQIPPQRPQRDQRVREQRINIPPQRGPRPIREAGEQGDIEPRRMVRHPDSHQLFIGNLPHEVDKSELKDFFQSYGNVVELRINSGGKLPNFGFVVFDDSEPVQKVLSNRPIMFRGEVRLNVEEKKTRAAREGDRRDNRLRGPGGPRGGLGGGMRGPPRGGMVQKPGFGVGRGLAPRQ

| Variant | effect of a mutation on the interaction |
| --- | --- |
| C694R | disrupting interaction strength |

Variants of: B1
Conditions: with fus_mouse Fus

| Variant | effect of a mutation on the interaction |
| --- | --- |
| C694R | disrupting interaction strength |
